What was measured:
SEC = molecular target: the molecule itself; test: SEC
native gel or EMSA = molecular target: the molecule itself; test: native gel or EMSA
Vts1-SNAP (full length) [1] = molecular target: T1, Vts1-SNAP (full length) (UniProt Q08831 1-523); test: fluorescence microscopy co-localization
T1 sequence: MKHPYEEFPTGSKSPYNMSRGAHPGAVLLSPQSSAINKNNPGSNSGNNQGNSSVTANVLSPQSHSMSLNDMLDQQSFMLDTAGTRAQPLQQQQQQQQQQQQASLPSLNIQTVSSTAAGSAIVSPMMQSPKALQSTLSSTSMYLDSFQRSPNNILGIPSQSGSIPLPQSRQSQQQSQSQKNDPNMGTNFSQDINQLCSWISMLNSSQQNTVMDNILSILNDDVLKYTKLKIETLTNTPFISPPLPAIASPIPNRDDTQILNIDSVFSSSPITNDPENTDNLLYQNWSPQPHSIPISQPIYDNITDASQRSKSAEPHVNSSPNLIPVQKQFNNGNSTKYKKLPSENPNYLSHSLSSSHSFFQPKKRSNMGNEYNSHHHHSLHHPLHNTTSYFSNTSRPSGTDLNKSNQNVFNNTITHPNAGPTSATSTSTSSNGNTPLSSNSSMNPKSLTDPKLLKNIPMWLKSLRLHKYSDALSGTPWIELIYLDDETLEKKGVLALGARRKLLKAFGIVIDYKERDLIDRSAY

Vts1-SNAP (full length) [2] = molecular target: T1, Vts1-SNAP (full length); test: fluorescence microscopy co-localization; remark: listed apart in the source

B1: full-length Vts1 with a C-terminal SNAP tag (natural protein, S. cerevisiae, UniProt Q08831 1-523, looked up)
chain: MKHPYEEFPTGSKSPYNMSRGAHPGAVLLSPQSSAINKNNPGSNSGNNQGNSSVTANVLSPQSHSMSLNDMLDQQSFMLDTAGTRAQPLQQQQQQQQQQQQASLPSLNIQTVSSTAAGSAIVSPMMQSPKALQSTLSSTSMYLDSFQRSPNNILGIPSQSGSIPLPQSRQSQQQSQSQKNDPNMGTNFSQDINQLCSWISMLNSSQQNTVMDNILSILNDDVLKYTKLKIETLTNTPFISPPLPAIASPIPNRDDTQILNIDSVFSSSPITNDPENTDNLLYQNWSPQPHSIPISQPIYDNITDASQRSKSAEPHVNSSPNLIPVQKQFNNGNSTKYKKLPSENPNYLSHSLSSSHSFFQPKKRSNMGNEYNSHHHHSLHHPLHNTTSYFSNTSRPSGTDLNKSNQNVFNNTITHPNAGPTSATSTSTSSNGNTPLSSNSSMNPKSLTDPKLLKNIPMWLKSLRLHKYSDALSGTPWIELIYLDDETLEKKGVLALGARRKLLKAFGIVIDYKERDLIDRSAY
In the case of B1, the “stoichiometry N” value (SEC) is reported as 6.

B2: SNAP^549 labeled full-length Vts1 (natural protein, S. cerevisiae, UniProt Q08831 1-523, looked up)
chain: MKHPYEEFPTGSKSPYNMSRGAHPGAVLLSPQSSAINKNNPGSNSGNNQGNSSVTANVLSPQSHSMSLNDMLDQQSFMLDTAGTRAQPLQQQQQQQQQQQQASLPSLNIQTVSSTAAGSAIVSPMMQSPKALQSTLSSTSMYLDSFQRSPNNILGIPSQSGSIPLPQSRQSQQQSQSQKNDPNMGTNFSQDINQLCSWISMLNSSQQNTVMDNILSILNDDVLKYTKLKIETLTNTPFISPPLPAIASPIPNRDDTQILNIDSVFSSSPITNDPENTDNLLYQNWSPQPHSIPISQPIYDNITDASQRSKSAEPHVNSSPNLIPVQKQFNNGNSTKYKKLPSENPNYLSHSLSSSHSFFQPKKRSNMGNEYNSHHHHSLHHPLHNTTSYFSNTSRPSGTDLNKSNQNVFNNTITHPNAGPTSATSTSTSSNGNTPLSSNSSMNPKSLTDPKLLKNIPMWLKSLRLHKYSDALSGTPWIELIYLDDETLEKKGVLALGARRKLLKAFGIVIDYKERDLIDRSAY
modifications: SNAP-Surface 549 dye on the SNAP tag
B2: binds (native gel or EMSA).

B3: SRE+ RNA (structured_RNA)
RNA: UAAUAAUCAGCUGGCCUGAUUAGUC
B3: binds (Vts1-SNAP (full length) [1]).

B4: SRE- RNA (permuted SRE) (structured_RNA)
RNA: UAAUAAUCAGGUCGCCUGAUUAGUC
In the case of B4, the binding signal (Vts1-SNAP (full length) [2]) is reported as > 5 fold lower co-localized signal than SRE+.
